The results in this text go back to PMC10300128.

The assay concerns the target human angiotensin-converting enzyme 2 (residues 19–615), mouse IgG2a Fc fusion (human) (UniProt Q9BYF1). The experiment in a line: BLI. Background: BLI is a label-free optical method that tracks binding on a fibre tip over time.
UniProt Q9BYF1, sequence (Q9BYF1 19-615): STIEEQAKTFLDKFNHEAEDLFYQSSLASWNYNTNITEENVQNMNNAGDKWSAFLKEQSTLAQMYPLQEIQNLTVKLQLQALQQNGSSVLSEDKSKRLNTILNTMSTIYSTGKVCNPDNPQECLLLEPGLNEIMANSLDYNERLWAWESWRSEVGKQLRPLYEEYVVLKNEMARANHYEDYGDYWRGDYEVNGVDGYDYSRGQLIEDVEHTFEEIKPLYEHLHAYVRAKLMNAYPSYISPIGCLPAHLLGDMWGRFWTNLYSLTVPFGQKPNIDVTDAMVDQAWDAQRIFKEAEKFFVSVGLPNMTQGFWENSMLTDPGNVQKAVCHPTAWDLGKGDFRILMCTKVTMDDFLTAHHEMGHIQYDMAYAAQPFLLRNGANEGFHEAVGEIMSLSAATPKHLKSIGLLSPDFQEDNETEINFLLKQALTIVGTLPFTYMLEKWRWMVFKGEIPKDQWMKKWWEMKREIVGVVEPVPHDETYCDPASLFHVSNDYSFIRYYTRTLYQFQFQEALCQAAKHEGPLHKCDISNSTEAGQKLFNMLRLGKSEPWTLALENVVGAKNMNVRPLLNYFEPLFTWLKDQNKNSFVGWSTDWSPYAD

The substance RhGB07 spike trimer (natural protein) showed a Kd of 253 nM.

A word on the Kd: it is the constant that tells how readily two partners part at equilibrium.
